Here are results for four substances from patent publication US20160304615A1.

As usually defined, the EC50 is the concentration that produces a half-maximal response. Read a high EC50 as lower potency in that assay. The term Kd denotes the equilibrium constant for the complex coming apart. A lower Kd goes with tighter binding. In general, koff refers to the first-order rate constant of dissociation. Lower therefore signals a long-lived complex. By kon is commonly meant a measure of how fast the partners come together. A low value points to slow association.

The target of assay [1] is EGFR-mmh (human) (UniProt P00533). The assay can be described thus: ELISA. (An ELISA detects its analyte on a solid surface through an enzyme-linked reagent.)
Assay [2] concerns the target EGFRvIII-mmh (human) (UniProt P00533). Nature of the assay: ELISA.
Assay [3] shares this target. The assay can be described thus: SPR coinjection; competitor (first antibody): H1H1863N2(Fuc-).
Assay [4] has as its target full-length hEGFRvIII on cells (human) (UniProt P00533). The assay can be described thus: FACS, HEK293/EGFRvIII cells, PE secondary antibody. Background: Flow cytometry measures light scatter and fluorescence of single cells or particles in a stream.
In assay [5] the target is wild-type human EGFR on cells (human) (UniProt P00533). The assay can be described thus: FACS, A431 cells, directly labeled antibody.
The target in assay [6] is EGFRvIII-mmh (human) (UniProt P00533). Nature of the assay: SPR coinjection; competitor (first antibody): Control III.
Assay [7] shares this target. The assay can be described thus: SPR, captured hEGFRvIII-mmh; no first antibody. Background: Surface plasmon resonance follows binding to a sensor surface in real time, without labels.
Assay [8] concerns the target EGFRvIII-mFc (human). The assay can be described thus: SPR 37C, mAb-capture.
Assay [9] addresses EGFRvIII-mmh (human) (UniProt P00533). The assay can be described thus: SPR 37C, mAb-capture.
For assay [10] the target is unchanged. Nature of the assay: SPR coinjection; competitor (first antibody): Control I.
For assay [11] the target is unchanged. The assay can be described thus: SPR coinjection; competitor (first antibody): Control II.
The target of assay [12] is EGFRvIII-mFc (human). Nature of the assay: SPR 37C, receptor-capture.
Assay [13] has as its target EGFR-mFc (human). Nature of the assay: SPR 37C, receptor-capture.
The target in assay [14] is wild-type human EGFR on cells (human) (UniProt P00533). The assay can be described thus: FACS, A431 cells, PE secondary antibody.
The target of assay [15] is full-length hEGFRvIII on cells (human) (UniProt P00533). Nature of the assay: cell-based or functional assay.
The target is the same in assay [16]. Nature of the assay: FACS, HEK293/EGFRvIII cells, directly labeled antibody.
The target of assay [17] is EGFRvIII junctional peptide (human). The assay can be described thus: ELISA.
Assay [18] deals with C-terminal biotin-labeled EGFRvIII junctional peptide (human). Nature of the assay: ELISA.
Assay [19] concerns the target N-terminal biotin-labeled EGFRvIII junctional peptide (human). The assay can be described thus: ELISA.

Chain of Control III: Humanized anti-EGFRvIII antibody (hIgG1) with the variable domains of the "hu806" antibody of US 2010/0056762 (VH): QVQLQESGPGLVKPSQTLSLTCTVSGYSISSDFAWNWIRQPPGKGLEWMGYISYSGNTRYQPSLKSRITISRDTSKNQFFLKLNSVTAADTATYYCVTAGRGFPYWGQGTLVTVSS
Chain of Control III: Humanized anti-EGFRvIII antibody (hIgG1) with the variable domains of the "hu806" antibody of US 2010/0056762 (VL): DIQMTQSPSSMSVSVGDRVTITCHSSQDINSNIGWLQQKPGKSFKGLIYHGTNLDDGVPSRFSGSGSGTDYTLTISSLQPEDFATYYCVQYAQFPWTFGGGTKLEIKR

In the case of “Control II: Chimeric anti-EGFRvIII antibody (hIgG1) with the variable domains of the "ch806" antibody of U.S. Pat. No. 7,589,180”, the 50% effective concentration (EC50) in [1] turned out to be 0.0095 nM; in [2], 0.0057 nM. Besides, the Second Antibody Binding Response (RU) worked out at 191 RU in assay [3]; 13 RU in assay [6]; 247 RU in assay [7]; 258 RU in assay [10]; 6 RU in assay [11]. Moreover, the HEK293/EGFRvIII MFI in [4] and in assay [16] was 313000 MFI each time. Besides, the results for the Ratio (EGFRvIII MFI/parental MFI) in [4] and in assay [16] were 308 and 87.4, respectively. The A431 MFI is 15700 MFI in assay [5] and 5580 MFI in assay [14]. Moreover, the figures for the Fold Above Background in assay [5] and in [14] were 2.3 fold and 3.9 fold, respectively. The dissociation constant Kd in assay [8] was 2.02 nM; in assay [9] it was 150 nM; in assay [12], 0.059 nM; in assay [13], 0.329 nM. Besides, the T½ in assay [8] amounted to 28 min; in assay [9], 2 min; in assay [12], 2.63 h; in assay [13], 79 min. In addition, the off-rate constant (koff) in [8] was 0.000408 s⁻¹; in assay [9], 0.00733 s⁻¹; in [12] it was 7.31e-05 s⁻¹; in assay [13], 0.000146 s⁻¹. Also, the kon in assay [8] is 202000 M⁻¹ s⁻¹; in assay [9], 49000 M⁻¹ s⁻¹; in assay [12] it was 1.25e+06 M⁻¹ s⁻¹; in [13], 444000 M⁻¹ s⁻¹. Also, the Fluorescent Intensity of vesicles 4° C., Mean in [15] came to 20300. The substance also returned a Fluorescent Intensity of vesicles 37° C., Mean in assay [15] of 615000.

Take “Control V: Human anti-EGFRvIII antibody (IgG1) with the variable domains of the "131" antibody of U.S. Pat. No. 7,736,644 B2”: in assay [4], the HEK293/EGFRvIII MFI was 997000 MFI and the Ratio (EGFRvIII MFI/parental MFI) turned out to be 85. Further, in assay [8], the Kd amounted to 1.95 nM, the T½ was 31 min, the koff stood at 0.000371 s⁻¹ and the on-rate (kon) was determined as 191000 M⁻¹ s⁻¹. In [9], this substance yielded a dissociation constant (Kd) of 82 nM, a T½ of 1 min, a dissociation rate constant (koff) of 0.0159 s⁻¹ and an on-rate (kon) of 194000 M⁻¹ s⁻¹. In assay [14], the A431 MFI worked out at 4240 MFI and the Fold Above Background came to 3 fold.

For the substance “Control I: Human anti-EGFRvIII antibody (IgG1) with the variable domains of the "13.1.2" antibody of U.S. Pat. No. 7,736,644”, the EC50 in [17] amounted to 0.118 nM; in assay [2] it was 0.0094 nM; in [18], 0.0153 nM; in assay [19], 0.0106 nM. The Second Antibody Binding Response (RU) in assay [3] was 253 RU; in assay [6], 254 RU; in assay [7], 234 RU; in assay [10], 5 RU; in assay [11], 252 RU. Moreover, the HEK293/EGFRvIII MFI in assay [4] was 272000 MFI; in [16], 258000 MFI. The A431 MFI in [5] was 9650 MFI; in [14] it was 1450 MFI. In addition, the dissociation constant (Kd) in assay [8] came to 103 nM; in [9] it was 1190 nM; in [12] it was 9.06 nM. Besides, the results for the T½ in [8], in assay [9] and in assay [12] were 1.6 min, 0.1 min and 0.0483 h, respectively. Moreover, the Fluorescent Intensity of vesicles 4° C., Mean in assay [15] came out at 22000. In addition, in assay [15], the Fluorescent Intensity of vesicles 37° C., Mean worked out at 264000.

In the case of “Control III: Humanized anti-EGFRvIII antibody (hIgG1) with the variable domains of the "hu806" antibody of US 2010/0056762”, the dissociation constant Kd in assay [8] came out at 1.18 nM; in assay [12], 0.00067 nM; in assay [13], 0.215 nM. The T½ in assay [8] stood at 39 min; in [12], 192 h; in assay [13] it was 187 min.
